The target of this data set is T1, GST-OsARF24 (Oryza sativa (rice), UniProt Q2QQX6 1-841).
T1 sequence: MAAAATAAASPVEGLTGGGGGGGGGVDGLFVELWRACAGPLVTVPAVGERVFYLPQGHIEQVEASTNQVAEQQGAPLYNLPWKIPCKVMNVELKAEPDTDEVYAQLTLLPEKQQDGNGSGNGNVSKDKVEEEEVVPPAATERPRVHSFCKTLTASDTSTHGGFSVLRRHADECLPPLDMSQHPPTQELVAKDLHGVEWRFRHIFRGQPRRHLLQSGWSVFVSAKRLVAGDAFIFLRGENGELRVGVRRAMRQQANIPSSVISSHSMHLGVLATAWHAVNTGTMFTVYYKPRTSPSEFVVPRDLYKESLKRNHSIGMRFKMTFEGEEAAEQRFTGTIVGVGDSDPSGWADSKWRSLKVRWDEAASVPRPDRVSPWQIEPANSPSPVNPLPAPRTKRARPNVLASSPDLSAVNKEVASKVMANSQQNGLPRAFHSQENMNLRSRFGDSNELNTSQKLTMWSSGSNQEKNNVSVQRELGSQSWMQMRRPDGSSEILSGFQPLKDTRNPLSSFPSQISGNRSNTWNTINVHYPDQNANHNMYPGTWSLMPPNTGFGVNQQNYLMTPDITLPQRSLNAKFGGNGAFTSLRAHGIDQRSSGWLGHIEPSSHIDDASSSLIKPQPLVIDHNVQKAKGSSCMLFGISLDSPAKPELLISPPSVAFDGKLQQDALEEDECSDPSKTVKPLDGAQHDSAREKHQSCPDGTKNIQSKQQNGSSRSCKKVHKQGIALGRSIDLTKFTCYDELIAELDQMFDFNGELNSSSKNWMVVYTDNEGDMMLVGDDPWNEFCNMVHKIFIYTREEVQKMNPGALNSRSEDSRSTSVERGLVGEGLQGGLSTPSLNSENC
Nature of the data set: EMSA. On the technique in general: In EMSA bound probe runs differently from free probe, usually more slowly.

The results in this text go back to publication PMC12048566.

B1: ARF probe (OsMAP1/OsMPK3 promoter) (dsDNA)
DNA 1: TCATCGCCTTGCTGTCTCTGCGAATCGAGA
DNA 2: TCTCGATTCGCAGAGACAGCAAGGCGATGA
As for B1, the binding result is “binds”.
